# Data reported in PMC5524996.
# Target: IssA (iron-sulfur storage protein A), native thioferrate-bound nanoparticle form from Pyrococcus furiosus (Pyrococcus furiosus)
# Test: negative stain TEM; purified native IssA, untreated (20-300 nm) and after 3 M guanidinium chloride, 0.5 mM EDTA, 25 mM DTT (16-22 nm spheres); composition estimated from the volume of a 20 nm sphere, densities and the Fe:protein ratio
substance,measurement,value
"IssA (iron-sulfur storage protein A), native thioferrate-bound nanoparticle form from Pyrococcus furiosus (natural protein)",stoichiometry N,170
